Results taken from the DeepSol protein solubility set.

Assay: soluble on expression in E. coli; label from the status in PepcDB or PDB records

Soluble on expression in E. coli, not soluble:
MGSDKIHHHHHHMNYLKLKQDVQAGRVAPVYFMYGTELFLMEDLIQDILSVTLSDEERDMNVSSYSLTDVPIEAALEEAETVPFFGSKRVVILKDAALFTSQKLDVEHDVKRLEQYILNPVPETVLLIMAPYEKLDERKKITKLIKKESLVLEAKPLDEGEAKAWLSSLASELQVEMDEKAIETLLGMTGLRLTQLASEMNKLALYVGEGGIIRSEDVTLLVAKTLDQNIFDLIDFAINQRTHQALSLYHELLKQKEEPLKLLALLTRQFRIMYQVKELGRRGYTPNQMAKPLKIHPYVAKLAGKKAASMSDQLLYSLIEKAADTEFAIKSGKVDKVLALELFLLTMGSRESVG
MGSDKIHHHHHHMPAFIKKELIMKLQGAGLGYRRNLAEDFLQLPSNNAIQFIEVAPENWSKMGGMARYQFDQAAERFPLAVHGLSLSLGGQAPLDRELLRNTKALINQYNSSFFSEHLSYCECEGHLYDLLPMPFTEEAVKHVAQRIRDVQDFLGLQISLENTSYYLHSPTSTMNEVEFLNAIAQEADCGIHLDVNNIYVNGVNHGLLDPYIFLDQVDVKRVNYIHIAGHDEEHSAAQVVENSANESFNKVKGAYRHLPELLIDTHGEAVKGTVWDLLEYAYQRLPTIPPTLLERDFNFPPFAELYAEVEHIAQLQQKYAHTEVMSYAA
MGSDKIHHHHHHMPAMQHTQPSRPQLVYLAFGPATYHQEACFSIVSALAQLGSAAGEAMDIQVYTDNAQPYARLPVTVHLLDEATRQAWNAPHGYHFRSKHVLLRQVLQQHPLAVLIDTDTFFRTSPLHLFARVAPNRLLCNAIGTRYGADQKCLLYKNLLAILESRGLADCQMPLVNSGVIGLTAENCDTLDRSIAMMDEFYPLAREAYTLEEFCLAVAAYRNLELAECTDVIHHYWSRKAQFRAKIQAWLRKHEHDPLSPPALADVALVNDQLPRPPTLHRLGYKALSLTLPSHERQFARELLYGCYPYPNEFDRACASAWWDKALENLNDRYGHVEPERLRQCLRHPGLRLSLGERRKDIEAHLLRSTQA
MGSDKIHHHHHHMPANDFVSPDSIRAQFSAAMSLMYKQEVPLYGTLLELVSEINQQVMAQQPEVAEALRWTGEIERLDQERHGAIRVGTAEELATIARLFAVMGMQPVGYYDLSSAGVPVHSTAFRAVHEQSLHVSPFRVFTSLLRLELIDNPQLRELAQSILAKRQIFTSRALELIAQCEREGGLDAADAETFVQEALHTFRWHQDATVTAEQYQQLHDQHRLIADVVAFKGPHINHLTPRTLDIDAIQLGMPAKGIPPKAVVEGPPTRRHPILLRQTSFKALQETVAFRDQQGREGSHTARFGEIEQRGAALTPKGRQLYDKLLDATRVALGGAPAEANAERYMALLQANFAEFPDDLAQMREQGLAYFRYFATEKGLAARDQEGRPTTLQGLIDAGHVHFEALVYEDFLPVSAAGIFQSNLGDDAQAEYGSNANREAFEAALGLQVQDELALYAQSERRSLQACAQALNLGSM
MGSDKIHHHHHHMPEEIVTRVITFFFPYDSKVEGKNDCVDTYKIHTFPEYENSDWYRGDPRDHSNGQPNGHEMWGHGQIGWWQKDENGWHWYWEDESNMPRPTQGLSEIMSTTTTTGSPLSIYSTTPSDAPETYSDTVLSVVLGF
MGSDKIHHHHHHMPGFSADLDCVPGSIRSQVEENYRVWRRAWITSSAQPAVNSSGRALRLQPRHTAQRRTASESGADAGGELNGITIPTTATTRYAERRGISIVRTYADEGKSGLRIDGRRALQQLIKDVEGGTADFQIILVYDVSRWGRFQDADESAYYECICRRAGIQVAYCAEQFENDGSPVSTIVKGVKRAMAREYSRELSAKVFAGQCRLIELGYRQGSPAGFGLRRVLIDQQGSSKGMLARGEQKSLQTDRVVLMPGPGDEIRIVHQIYRWFIDEGLGDSEIAMRLNSIRVRTDFDRYWTRATVHEVLTNEKYIGNNVYNRISFKLKKLRVVNTPDMWDQKGRRV
MGSDKIHHHHHHMPITFVDRESELKFLESLWKRRNSFVPVYGRRRIGKTRLVKEFIKGKPSVYYLSRNSSYNDNLYGFSQVVLEAYPSPYLTPKSFSTFTDIFRYLSEKGKVVVVIDEFPYLINSDKRILSEFQYIIDEIVRNSEIHLILVGSSIGMMEEHVLSQKSPLYGRRDGQIRLHSLDFFSSWKLLGVSLEEAIKIYGVTGGIPAYLILFKKFEDLKNVAFSKQGFLYAEADFLLSSELREPRVYKLILKAIAEGKRRFNEISTFTGIPRPNLFKYIEVLERLGLLRREAPITAPPKTKNTRYKIVDNYIAFYFRFIEKYRHEIELESINFWEEFLEDYNNYLGEVFEDIACQFLVRLNKKRMFPFRFSKIGRWWHKNEEIDLVALDKREKRASFIEVKWKTLKEGEARSILRDLERKSKLVGLDYWNKNYGLIAKHIEGKENLREEGFLAWDLRDFELVKKE
MGSDKIHHHHHHMPKILKFNEEARRALERGVDKVANAVKVTLGPKGRNVVIEKSWGSPTITNDGVSIAKEIELEDKFENLGAQLVKEVASKTNDVAGDGTTTATVLAQAMIKEGLKNVAAGANPILLKRGIDKAVEKAVEEIKKVSKKLSGREDIAHVAAISANSAEIGELIAEAMDKVGEDGVITVEDSKTLETYVEFTEGMQFDRGYISPYFVTDAEKMEVVLKEPFILITDRKLSAVKPLIPILEKVAQTGKPLLVIAEDVEGEVLTTLVLNKLKGTLQSCAVKAPGFGERRKAMLQDIAILTGGQVASEELGINLEDLTLEDLGRADLVRVKKDETIIIGGKGDPEAIKKRIAQIKAQIEETTSEYEKETLQERMAKLAGGVAVIKVGAATETELKEKKHRIEDALSATRAAVEEGIVPGGGVTLLRARKAVEKVIEELEGDEKIGAQIVYKALSAPIKQIAENAGYDGAVIIEKILSNDDPAYGFDALRGEYCNMFERGIIDPAKVTRSALQNAASIAGMLLTTEVLIVEKPEEKKETPSMPEEF
MGSDKIHHHHHHMPKITKIEVQKKNKERFNLFLDEQFEMGIDIDTLVKFNLKKGQQLEAADMAEIQKYDHYRIGLNKAIQYLSYKKRTEKEVIQYLQKEEISEQAISEVIEYCYREKLIDHQDYAESLKNTMIRTTDKGPKIYQQKLYQLGIEPNIIEIFTELYREQQELDDIIQIAEKISKTKKGPQNKVKEKVMQSLIQKGFEMETIHAVLNEMDFTQDEAVLDDLLQRDLEKIYNKNRKKYTQQKLISKTIEGLMRKGYKYDKIKAKLEESGIADGTEEIE
MGSDKIHHHHHHMPMIHYIFNREIVPPAIEPLLKQLFSGQNFTQSDRLLGYSKGRGITWFLNTQAELGINIVLRHYYRGGLFGKVVKDRYLFQRIDQTRAVQEFNLLTQMQRWHLPVPRPIAVEINKQSIFYRAKIMLEKIEHTQDLSKLLQTQPLVAEQYQQLGQLIRQLHDHQIHHSDLNIHNILLDDNGKFWLIDFDKCCIKAGEEWKQANLNRLLRSFHKEQTRLGIQFHQQNWQSLLTGYQQHNQGDNR
MGSDKIHHHHHHMPSTFESQLFFSRPFLSKRQIQRAQKNTISDYRNYNQKKLAVFKFLSDLCVQLKFPRKTLETAVYFYQRYHLFNRFETEVCYTVATSCLTLGCKEVETIKKTNDICTLSLRLRNVVKINTDILENFKKRVFQIELRILESCSFDYRVNNYVHIDEYVIKIGRELSFDYKLCNLAWVIAYDALKLETILVIPQHSIALAILKIAYELLDNKNWSSKRYSLFETDEKSVNEAYFDIVNFYINSFDMCDLQRHLPADLLPIGVERFMELKKNAGPESGLPQIPDHLLNADPYITITRDNNVQERRYVLSLELINGESSINSSTRHA
MGSDKIHHHHHHMPTSALDGKDTAAIQAATAEVAVYDRSNWGLIRVSDDDRLRFLHNQSTNDFQSLKPGQGCETVMVTSTARTIDLVSSYVLNDAVILLVSSSRREFLLQWLDRYIFFADKVQLTDITDETATLSIIGPGSDAVVEKLGAGEIIGQPHGNHITIDGGVVAAVGSGLASPGYTLILPVSQKQQVWQQILDSGAVELSDRAWDTLRILQGRPAPDAELTDDYNPLEVGLWQTISFSKGCYIGQETIARLNTYKGVKQHLWGIRLNAPAEIGDSINIGDEKVGKLTSYTETPDGYFGLAYIRSKAGGVGLKVQVGNSEGEVVAIPFVSHEYP
